In publication PMC5268738, “A sequential multi-target Mps1 phosphorylation cascade promotes spindle checkpoint signaling” (eLife, 2017) one finds Kd data, which are given here for 1 molecule.

This assay has as its target scMad1^E–scMad2 complex (S. cerevisiae) (UniProt P40957). As to the kind of experiment: ITC; 20°C; 25 mM HEPES pH 7.5, 150 mM NaCl; scMad1 proteins (20 µM) in the cell; scBub1 phospho-peptides or phosphorylated scBub1_(449–530) (300 µM) injected.

Sequence of scMad1^E–scMad2 complex (S. cerevisiae) (P40957 whole entry, chain 1 of 2): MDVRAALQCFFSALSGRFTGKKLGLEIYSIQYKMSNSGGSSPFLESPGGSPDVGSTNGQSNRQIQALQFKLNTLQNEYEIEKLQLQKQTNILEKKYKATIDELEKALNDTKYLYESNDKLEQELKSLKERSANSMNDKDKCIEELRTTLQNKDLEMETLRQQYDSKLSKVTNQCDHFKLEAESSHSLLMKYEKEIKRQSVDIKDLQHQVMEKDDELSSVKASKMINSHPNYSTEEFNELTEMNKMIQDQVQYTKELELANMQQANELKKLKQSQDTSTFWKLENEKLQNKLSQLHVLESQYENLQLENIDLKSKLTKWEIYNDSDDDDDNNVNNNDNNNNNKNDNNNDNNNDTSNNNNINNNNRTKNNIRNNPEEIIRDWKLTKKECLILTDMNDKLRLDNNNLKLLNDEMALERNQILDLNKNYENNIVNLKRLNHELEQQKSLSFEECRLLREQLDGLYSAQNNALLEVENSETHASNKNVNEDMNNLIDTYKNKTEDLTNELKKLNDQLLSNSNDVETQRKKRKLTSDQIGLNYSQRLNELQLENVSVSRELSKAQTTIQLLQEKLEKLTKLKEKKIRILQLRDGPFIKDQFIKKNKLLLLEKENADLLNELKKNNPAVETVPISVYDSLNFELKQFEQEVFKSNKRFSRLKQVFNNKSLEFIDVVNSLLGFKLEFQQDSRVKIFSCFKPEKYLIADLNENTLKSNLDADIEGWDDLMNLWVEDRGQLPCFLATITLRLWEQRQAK
Sequence of scMad1^E–scMad2 complex (S. cerevisiae) (P40958 whole entry, chain 2 of 2, further chain): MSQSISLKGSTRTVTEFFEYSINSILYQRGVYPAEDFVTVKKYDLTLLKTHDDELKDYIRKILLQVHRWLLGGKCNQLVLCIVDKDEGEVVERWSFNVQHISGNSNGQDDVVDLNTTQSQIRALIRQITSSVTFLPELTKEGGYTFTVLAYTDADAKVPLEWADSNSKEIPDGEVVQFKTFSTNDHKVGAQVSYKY

B1: Mps1-phosphorylated scBub1_(449–530) fragment (domain or fragment)
chain: SRSPTVTAFSKDAINEVFSMFNQHYSTPGALLDGDDTTTSKFNVFENFTQEFTAKNIEDLTEVKDPKQETVSQQTTSTNETN
modifications: phosphothreonine at 453, phosphothreonine at 455, phosphoserine at 458 (mass spectrometry; co-expressed with scMps1)
Regarding B1, the Kd is 2200 nM.
